Measurements published in doi:10.1101/2021.06.01.446691.

Molecular target: VirB4-like TraB ATPase of the pKM101-encoded type IV secretion system (plasmid pKM101 (carried in E. coli))
Test: cryo-EM structure

- stoichiometry N: 12
Substance: VirB4-like TraB ATPase of the pKM101-encoded type IV secretion system (enzyme)
